Values joined by “and” are separate entries in the source; they are usually repeats but may differ in a detail not shown here. Identical values can stand only once. Like-named read-outs stand apart in the source and are kept apart here.
Experiments:
Assay in all cases: SPR
[1] = molecular target: P2B-2F6 monoclonal antibody (human)
[2] = molecular target: SARS-CoV-2 receptor-binding domain (RBD), residues Arg319 to Lys529 (SARS-CoV-2) (UniProt P0DTC2)
[3] = molecular target: SARS-CoV-2 receptor-binding domain (RBD), residues Arg319 to Lys529 (SARS-CoV-2) (UniProt P0DTC2); remark: listed apart in the source

“SARS-CoV-2 receptor-binding domain (RBD), residues Arg319 to Lys529 (from UniProt P0DTC2 319-529) (domain or fragment)” showed a Kd [1] of 15.6 nM.

For P2C-1F11 monoclonal antibody, the Kd [2] was 1.1 nM and 2.67 nM and 1.38 nM, the koff [2] was 0.00263 s⁻¹ and 0.00303 s⁻¹ and 0.00213 s⁻¹ and the Kd [3] was 2.4 nM.

With P2B-2F6 monoclonal antibody the Kd [3] was 19 nM and 13.8 nM and 14.1 nM and the koff [3] was 0.102 s⁻¹ and 0.0911 s⁻¹.

— paper PMC7801515
